Data as given in publication PMC8560823, “Structural insights into the clustering and activation of Tie2 receptor mediated by Tie2 agonistic antibody” (Nature Communications, 2021).
Positions count from the first letter of the chain named. Numbers in names are those of the source.

Experiments:
[1] = target: the molecule itself; test: cross-linking; engineered disulfide bonds (D682C/N691C) across the Fn3–Fn3' interface; SDS-PAGE with Coomassie blue under reducing and non-reducing conditions
mouse Tie2 Ig3–Fn3 [2] = target: T1, mouse Tie2 Ig3–Fn3 (Mus musculus, UniProt Q02858); test: BLI; Octet, 30 °C; humanized IgG1s and mouse Tie2; how the humanized IgG1s were loaded is not told (Supplementary Fig. 5f); conditions: both partners purified
T1 construct: mouse Tie2, Ig3–Fn3, residues 349–737; also called mTie2 Ig3–Fn3; mTie2
T1 sequence (Q02858 349-737): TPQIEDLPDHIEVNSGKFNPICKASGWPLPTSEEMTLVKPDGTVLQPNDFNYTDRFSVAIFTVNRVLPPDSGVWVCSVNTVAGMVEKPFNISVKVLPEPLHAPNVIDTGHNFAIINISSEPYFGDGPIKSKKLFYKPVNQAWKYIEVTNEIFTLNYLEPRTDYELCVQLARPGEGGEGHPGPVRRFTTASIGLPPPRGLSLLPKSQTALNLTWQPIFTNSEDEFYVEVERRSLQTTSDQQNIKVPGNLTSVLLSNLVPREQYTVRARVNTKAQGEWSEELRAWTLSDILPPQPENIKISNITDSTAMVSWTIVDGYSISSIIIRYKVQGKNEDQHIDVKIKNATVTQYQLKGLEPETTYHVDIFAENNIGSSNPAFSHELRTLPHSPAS

mouse Tie2 Ig3–Fn3 [3] = target: T1, mouse Tie2 Ig3–Fn3; test: BLI; Octet, 30 °C; mouse hTAAB (10 μg/ml) loaded on anti-mouse IgG Fc capture (AMC) biosensors; 1600 nM mouse Tie2 Ig3–Fn3 in kinetics buffer (0.01% BSA, 0.002% Tween-20, 0.005% NaN3 in PBS); 600 s association, 600 s dissociation; conditions: both partners purified
[4] = target: T2, human Tie2 extracellular domain (hTie2 ECD) (human, UniProt Q02763); test: SPR; Biacore T200; hTie2 ECD immobilised on CM5 chip by amine coupling (10 mM acetate pH 5.5); antibodies flowed at 0-64 nM, 300 s association, 300 s dissociation, 30 µl/min; HBS-EP+ buffer; 1:1-binding model, global fit; conditions: both partners purified
T2 construct: human Tie2, extracellular domain, residues 23–735 of human Tie2; Host, tags and purification of the ECD are not described; also called Human Tie2 ECD; source: produced in house
T2 sequence (Q02763 23-735): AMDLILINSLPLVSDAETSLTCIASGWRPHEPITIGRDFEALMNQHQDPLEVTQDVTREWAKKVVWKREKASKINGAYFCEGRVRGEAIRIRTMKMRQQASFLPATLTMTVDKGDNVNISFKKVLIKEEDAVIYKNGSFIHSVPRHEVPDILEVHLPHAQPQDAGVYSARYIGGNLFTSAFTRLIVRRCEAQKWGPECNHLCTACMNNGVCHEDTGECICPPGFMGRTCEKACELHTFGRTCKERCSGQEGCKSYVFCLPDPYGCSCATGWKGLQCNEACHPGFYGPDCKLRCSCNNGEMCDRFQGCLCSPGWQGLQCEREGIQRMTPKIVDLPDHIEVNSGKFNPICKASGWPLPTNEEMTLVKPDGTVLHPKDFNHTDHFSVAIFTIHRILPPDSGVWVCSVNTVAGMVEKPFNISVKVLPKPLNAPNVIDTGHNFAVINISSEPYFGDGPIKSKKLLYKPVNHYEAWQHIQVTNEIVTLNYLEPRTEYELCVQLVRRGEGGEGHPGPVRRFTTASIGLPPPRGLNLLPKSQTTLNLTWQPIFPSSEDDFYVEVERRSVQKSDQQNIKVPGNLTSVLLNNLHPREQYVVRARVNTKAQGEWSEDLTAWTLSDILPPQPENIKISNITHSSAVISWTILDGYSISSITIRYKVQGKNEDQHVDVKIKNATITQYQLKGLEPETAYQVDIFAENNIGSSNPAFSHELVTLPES

B1: hTie2 Ig3–Fn3 D682C/N691C (domain or fragment, human, UniProt Q02763 349-738, looked up)
chain: TPKIVDLPDHIEVNSGKFNPICKASGWPLPTNEEMTLVKPDGTVLHPKDFNHTDHFSVAIFTIHRILPPDSGVWVCSVNTVAGMVEKPFNISVKVLPKPLNAPNVIDTGHNFAVINISSEPYFGDGPIKSKKLLYKPVNHYEAWQHIQVTNEIVTLNYLEPRTEYELCVQLVRRGEGGEGHPGPVRRFTTASIGLPPPRGLNLLPKSQTTLNLTWQPIFPSSEDDFYVEVERRSVQKSDQQNIKVPGNLTSVLLNNLHPREQYVVRARVNTKAQGEWSEDLTAWTLSDILPPQPENIKISNITHSSAVISWTILDGYSISSITIRYKVQGKNECQHVDVKIKCATITQYQLKGLEPETAYQVDIFAENNIGSSNPAFSHELVTLPESQAP
modifications: two intermolecular disulfide bonds between the introduced cysteines 682 and 691
notes: human Tie2, Ig3–Fn3, residues 349–738, with D682C and N691C; Made by overlap extension PCR from the pFuse-hTie2 Ig3–Fn3–hIgG1–Fc construct; also called constitutive Tie2 Ig3–Fn3 dimer; Tie2 dimeric mutant; source: Expi293F, secreted as Fc fusion, purified as for hTie2 Ig3–Fn3 (MabSelect SuRe, Fc removed by thrombin); not shown: Fc (human IgG1), C-terminal, cleaved
- binding result [1]: binds

B2: hzTAAB-H1L1 (antibody, V domains shown)
VH: QVQLVQSGAEVKKPGASVKVSCKASGYSFTSYWMHWVRQAPGQGLEWMGIIHPSDSETRYAQKFQGRVTMTRDTSTSTVYMELSSLRSEDTAVYYCARGLYGNSWGQGTLVTVSS
VL: DIQMTQSPSSLSASVGDRVTITCRASQDIGISLGWYQQKPGKAPKRLIYATSSLQSGVPSRFSGSGSGTEFTLTISSLQPEDFATYYCLQYASSPYTFGQGTKLEIK
- binding result (mouse Tie2 Ig3–Fn3 [2]): no binding (tested: 1600 nM)

B3: hzTAAB-H2L1 (antibody, V domains shown)
VH: B2 VH with R72V, T74K
VL: B2 VL
- binding result (mouse Tie2 Ig3–Fn3 [2]): no binding (tested: 1600 nM)

B4: hzTAAB-H2L2 (antibody, V domains shown)
VH: B2 VH with R72V, T74K
VL: B2 VL with G34N, Y36L, Q55D, G66R
- binding result (mouse Tie2 Ig3–Fn3 [2]): no binding (tested: 1600 nM)

B5: hzTAAB-H1L2 (antibody, V domains shown)
VH: B2 VH
VL: B2 VL with G34N, Y36L, Q55D, G66R
- binding result (mouse Tie2 Ig3–Fn3 [2]): no binding (tested: 1600 nM)

B6: human Tie2-activating antibody (hTAAB), mouse IgG1 (antibody, V domains shown)
VH: QVQLQQPGAELVRPGASVKLSCKASGYSFTSYWMNWVKQRPGQGLEWIGMIHPSDSETRLNQKFMDKATLTVDKSSSTAYMQLSSPTSEDSAVYYCARGLYGNSWGQGTLVTVSA
VL: DIQMTQSPSSLSASLGERVSLTCRASQDIGISLNWLQQEPDGTIKRLIYATSSLDSGVPKRFSGSRSGSDYSLTISSLESEDFVDYYCLQYASSPYTFGGGTKLEIK
notes: heavy-chain variable region of hTAAB (clone 3H7; closest germline mIGHV1-61*01); mouse IgG1 heavy-chain constant region; light-chain variable region of hTAAB (clone 3H7; closest germline mIGKV9-120*01); mouse kappa light-chain constant region; Mouse IgG1 from the hybridoma; also called 3H7; mouse hTAAB; source: B-cell hybridoma clone 3H7, serum-free culture supernatant, purified (Protein G); …
- binding result (mouse Tie2 Ig3–Fn3 [3]): no binding (tested: 1600 nM)
- Kd [4]: 4.2 nM
- koff [4]: 0.0006 s⁻¹
- kon [4]: 140000 M⁻¹ s⁻¹
